# Values of other authors as cited in US20200069786A1, “COMPOSITION AND PROCESS FOR PREPARING VACCINE” (TREOS BIO ZRT., priority 2018, published 2020).
# B1: MAGE-B1 (protein, UniProt P43366 1-347, looked up)
# Melanoma-associated antigen B1: MPRGQKSKLRAREKRRKAREETQGLKVAHATAAEKEECPSSSPVLGDTPTSSPAAGIPQKPQGAPPTTTAAAAVSCTESDEGAKCQGEENASFSQATTSTESSVKDPVAWEAGMLMHFILRKYKMREPIMKADMLKVVDEKYKDHFTEILNGASRRLELVFGLDLKEDNPSGHTYTLVSKLNLTNDGNLSNDWDFPRNGLLMPLLGVIFLKGNSATEEEIWKFMNVLGAYDGEEHLIYGEPRKFITQDLVQEKYLKYEQVPNSDPPRYQFLWGPRAYAETTKMKVLEFLAKMNGATPRDFPSHYEEALRDEEERAQVRSSVRARRRTTATTFRARSRAPFSRSSHPM
# B2: MAGE-B2 (protein, UniProt O15479 1-319, looked up)
# Melanoma-associated antigen B2: MPRGQKSKLRAREKRRKARDETRGLNVPQVTEAEEEEAPCCSSSVSGGAASSSPAAGIPQEPQRAPTTAAAAAAGVSSTKSKKGAKSHQGEKNASSSQASTSTKSPSEDPLTRKSGSLVQFLLYKYKIKKSVTKGEMLKIVGKRFREHFPEILKKASEGLSVVFGLELNKVNPNGHTYTFIDKVDLTDEESLLSSWDFPRRKLLMPLLGVIFLNGNSATEEEIWEFLNMLGVYDGEEHSVFGEPWKLITKDLVQEKYLEYKQVPSSDPPRFQFLWGPRAYAETSKMKVLEFLAKVNGTTPCAFPTHYEEALKDEEKAGV
# B3: MAGE-B4 (protein, UniProt O15481 1-346, looked up)
# Melanoma-associated antigen B4: MPRGQKSKLRAREKRQRTRGQTQDLKVGQPTAAEKEESPSSSSSVLRDTASSSLAFGIPQEPQREPPTTSAAAAMSCTGSDKGDESQDEENASSSQASTSTERSLKDSLTRKTKMLVQFLLYKYKMKEPTTKAEMLKIISKKYKEHFPEIFRKVSQRTELVFGLALKEVNPTTHSYILVSMLGPNDGNQSSAWTLPRNGLLMPLLSVIFLNGNCAREEEIWEFLNMLGIYDGKRHLIFGEPRKLITQDLVQEKYLEYQQVPNSDPPRYQFLWGPRAHAETSKMKVLEFLAKVNDTTPNNFPLLYEEALRDEEERAGARPRVAARRGTTAMTSAYSRATSSSSSQPM
# B4: ACRBP (protein, UniProt Q8NEB7 26-543, looked up)
# Acrosin-binding protein: QDSTQASTPGSPLSPTEYERFFALLTPTWKAETTCRLRATHGCRNPTLVQLDQYENHGLVPDGAVCSNLPYASWFESFCQFTHYRCSNHVYYAKRVLCSQPVSILSPNTLKEIEASAEVSPTTMTSPISPHFTVTERQTFQPWPERLSNNVEELLQSSLSLGGQEQAPEHKQEQGVEHRQEPTQEHKQEEGQKQEEQEEEQEEEGKQEEGQGTKEGREAVSQLQTDSEPKFHSESLSSNPSSFAPRVREVESTPMIMENIQELIRSAQEIDEMNEIYDENSYWRNQNPGSLLQLPHTEALLVLCYSIVENTCIITPTAKAWKYMEEEILGFGKSVCDSLGRRHMSTCALCDFCSLKLEQCHSEASLQRQQCDTSHKTPFVSPLLASQSLSIGNQVGSPESGRFYGLDLYGGLHMDFWCARLATKGCEDVRVSGWLQTEFLSFQDGDFPTKICDTDYIQYPNYCSFKSQQCLMRNRNRKVSRMRCLQNETYSALSPGKSEDVVLRWSQEFSTLTLGQFG
# B5: WBP2NL (protein, UniProt Q6ICG8 1-309, looked up)
# Postacrosomal sheath WW …: MAVNQSHTENRRGALIPNGESLLKRSPNVELSFPQRSEGSNVFSGRKTGTLFLTSYRVIFITSCSISDPMLSFMMPFDLMTNLTVEQPVFAANFIKGTIQAAPYGGWEGQATFKLVFRNGDAIEFAQLMVKAASAAARGFPLRTLNDWFSSMGIYVITGEGNMCTPQMPCSVIVYGAPPAGYGAPPPGYGAPPAGYGAQPVGNEGPPVGYRASPVRYGAPPLGYGAPPAGYGAPPLGYGAPPLGYGTPPLGYGAPPLGYGAPPAGNEGPPAGYRASPAGSGARPQESTAAQAPENEASLPSASSSQVHS
# B6: ATAD2 (protein, UniProt Q6PL18 1-1390, looked up)
# ATPase family AAA …: MVVLRSSLELHNHSAASATGSLDLSSDFLSLEHIGRRRLRSAGAAQKKPAATTAKAGDGSSVKEVETYHRTRALRSLRKDAQNSSDSSFEKNVEITEQLANGRHFTRQLARQQADKKKEEHREDKVIPVTRSLRARNIVQSTEHLHEDNGDVEVRRSCRIRSRYSGVNQSMLFDKLITNTAEAVLQKMDDMKKMRRQRMRELEDLGVFNETEESNLNMYTRGKQKDIQRTDEETTDNQEGSVESSEEGEDQEHEDDGEDEDDEDDDDDDDDDDDDDDEDDEDEEDGEEENQKRYYLRQRKATVYYQAPLEKPRHQRKPNIFYSGPASPARPRYRLSSAGPRSPYCKRMNRRRHAIHSSDSTSSSSSEDEQHFERRRKRSRNRAINRCLPLNFRKDELKGIYKDRMKIGASLADVDPMQLDSSVRFDSVGGLSNHIAALKEMVVFPLLYPEVFEKFKIQPPRGCLFYGPPGTGKTLVARALANECSQGDKRVAFFMRKGADCLSKWVGESERQLRLLFDQAYQMRPSIIFFDEIDGLAPVRSSRQDQIHSSIVSTLLALMDGLDSRGEIVVIGATNRLDSIDPALRRPGRFDREFLFSLPDKEARKEILKIHTRDWNPKPLDTFLEELAENCVGYCGADIKSICAEAALCALRRRYPQIYTTSEKLQLDLSSINISAKDFEVAMQKMIPASQRAVTSPGQALSTVVKPLLQNTVDKILEALQRVFPHAEFRTNKTLDSDISCPLLESDLAYSDDDVPSVYENGLSQKSSHKAKDNFNFLHLNRNACYQPMSFRPRILIVGEPGFGQGSHLAPAVIHALEKFTVYTLDIPVLFGVSTTSPEETCAQVIREAKRTAPSIVYVPHIHVWWEIVGPTLKATFTTLLQNIPSFAPVLLLATSDKPHSALPEEVQELFIRDYGEIFNVQLPDKEERTKFFEDLILKQAAKPPISKKKAVLQALEVLPVAPPPEPRSLTAEEVKRLEEQEEDTFRELRIFLRNVTHRLAIDKRFRVFTKPVDPDEVPDYVTVIKQPMDLSSVISKIDLHKYLTVKDYLRDIDLICSNALEYNPDRDPGDRLIRHRACALRDTAYAIIKEELDEDFEQLCEEIQESRKKRGCSSSKYAPSYYHVMPKQNSTLVGDKRSDPEQNEKLKTPSTPVACSTPAQLKRKIRKKSNWYLGTIKKRRKISQAKDDSQNAIDHKIESDTEETQDTSVDHNETGNTGESSVEENEKQQNASESKLELRNNSNTCNIENELEDSRKTTACTELRDKIACNGDASSSQIIHISDENEGKEMCVLRMTRARRSQVEQQQLITVEKALAILSQPTPSLVVDHERLKNLLKTVVKKSQNYNIFQLENLYAVISQCIYRHRKDHDKTSLIQKMEQEVENFSCSR
# B7: MAGE-A8 (protein, UniProt P43361 1-318, looked up)
# Melanoma-associated antigen 8: MLLGQKSQRYKAEEGLQAQGEAPGLMDVQIPTAEEQKAASSSSTLIMGTLEEVTDSGSPSPPQSPEGASSSLTVTDSTLWSQSDEGSSSNEEEGPSTSPDPAHLESLFREALDEKVAELVRFLLRKYQIKEPVTKAEMLESVIKNYKNHFPDIFSKASECMQVIFGIDVKEVDPAGHSYILVTCLGLSYDGLLGDDQSTPKTGLLIIVLGMILMEGSRAPEEAIWEALSVMGLYDGREHSVYWKLRKLLTQEWVQENYLEYRQAPGSDPVRYEFLWGPRALAETSYVKVLEHVVRVNARVRISYPSLHEEALGEEKGV
# B8: IGFS11 (protein, UniProt Q5DX21 23-431, looked up)
# Immunoglobulin superfamily …: LEVSESPGSIQVARGQPAVLPCTFTTSAALINLNVIWMVTPLSNANQPEQVILYQGGQMFDGAPRFHGRVGFTGTMPATNVSIFINNTQLSDTGTYQCLVNNLPDIGGRNIGVTGLTVLVPPSAPHCQIQGSQDIGSDVILLCSSEEGIPRPTYLWEKLDNTLKLPPTATQDQVQGTVTIRNISALSSGLYQCVASNAIGTSTCLLDLQVISPQPRNIGLIAGAIGTGAVIIIFCIALILGAFFYWRSKNKEEEEEEIPNEIREDDLPPKCSSAKAFHTEISSSDNNTLTSSNAYNSRYWSNNPKVHRNTESVSHFSDLGQSFSFHSGNANIPSIYANGTHLVPGQHKTLVVTANRGSSPQVMSRSNGSVSRKPRPPHTHSYTISHATLERIGAVPVMVPAQSRAGSLV
# B9: FATE1 (protein, UniProt Q969F0 1-183, looked up)
# Fetal and adult …: MAGGPPNTKAEMEMSLAEELNHGRQGENQEHLVIAEMMELGSRSRGASQKKQKLEQKAAGSASAKRVWNMTATRPKKMGSQLPKPRMLRESGHGDAHLQEYAGNFQGIRFHYDRNPGTDAVAQTSLEEFNVLEMEVMRRQLYAVNRRLRALEEQGATWRHRETLIIAVLVSASIANLWLWMNQ
# B10: TEKT5 (protein, UniProt Q96M29 1-485, looked up)
# Tektin-5: MEFLGTTQTASYCGPKKCCGLTSLPAVQAPVIQECYQPYYLPGYRYLNSWRPSLFYKIANVQTCPDESTSTLRPPTILPTLRSALFSRYSPHDWDQSNQLQVRGAEASRLWASRLTDDSMRLLQDKDQLTHQMQEGTCRNLGQRLSDIGFWKSELSYELDRLLTENQNLETVKRRLECAANEVNCPLQVALECLYHREKRIGIDLVHDNVEKNLIREVDLLKCCQEQMRKLAQRIDIQMRDNRDAQHVLERDLEDKSSAQCIDEKCFNLRNTSDCISFFHGMEKIDGTISVPETWAKFSNDNIKHSQNMRANSIQLREEAEHLFETLSDQMWRQFTDTNLAFNARISEVTDVKNKLQTQLAKTLQEIFQAENTIMLLERSIMAKEGPLKVAQTRLECRTRRPNMELCRDIPQLKLVNEVFTIDDTLQTLKLRLRETQDTLQLLVMTKCRLEHELAIKANTLCIDKEKCMGMRKTFPCTPRLVGHT
# Tested on: TSA
# Conditions: BRAIN
row,Molecule,TSA Expression Rate (ER) [%]
1,B1,0
2,B2,0
3,B3,0

# Same assay, conditions: BREAST
row,Molecule,TSA Expression Rate (ER) [%]
1,B4,40
2,B5,50
3,B6,52

# Same assay, conditions: HCC
row,Molecule,TSA Expression Rate (ER) [%]
1,B4,70
2,B1,47
3,B7,45
4,B8,60
5,B2,61
6,B9,49
7,B10,60

# Same assay, conditions: LUNG
row,Molecule,TSA Expression Rate (ER) [%]
1,B4,20
2,B2,43
3,B6,23

# Same assay, conditions: OVARIAN
row,Molecule,TSA Expression Rate (ER) [%]
1,B4,65

# Same assay, conditions: TSA expression rate in BLADDER cancer
row,Molecule,Expression Rate (ER) % [%]
1,B4,28
2,B1,0
3,B7,57
4,B2,0

# Same assay, conditions: TSA expression rate in CRC
row,Molecule,Expression Rate (ER) % [%]
1,B4,63
2,B1,0
3,B7,44
4,B2,0
5,B6,58
6,B9,21
7,B10,50

# Same assay, conditions: TSA expression rate in GASTRIC cancer
row,Molecule,Expression Rate (ER) % [%]
1,B4,0
2,B8,88
3,B2,0
4,B6,43
5,B9,2
6,B10,40

# Same assay, conditions: TSA expression rate in HEAD and NECK
row,Molecule,Expression Rate (ER) % [%]
1,B2,45
2,B10,0

# Same assay, conditions: TSA expression rate in Kidney
row,Molecule,Expression Rate (ER) % [%]
1,B4,0
2,B1,0
3,B2,0

# Same assay, conditions: TSA expression rate in LEUKEMIAS
row,Molecule,Expression Rate (ER) % [%]
1,B1,5
2,B3,3

# Same assay, conditions: TSA expression rate in LUNG cancer
row,Molecule,Expression Rate (ER) % [%]
1,B1,13
2,B3,0
3,B9,0
4,B10,10

# Same assay, conditions: TSA expression rate in MELANOMA
row,Molecule,Expression Rate (ER) % [%]
1,B1,19
2,B7,10
3,B2,22
4,B6,0

# Same assay, conditions: TSA expression rate in PROSTATE cancer
row,Molecule,Expression Rate (ER) % [%]
1,B4,4
2,B1,0
3,B2,0
4,B6,0
5,B10,11
